Laboratory results published in patent publication US20250340623A1 (AC IMMUNE, published 2025).
Where no end group is shown, it is not given here. The star is where a group is joined. Biotin = O=C1N[C@H]2[C@H](CS[C@H]2CCCCC(=O)*)N1; Ahx = NCCCCCC(=O)O

Assays:
91-105aa [1] = biological target: T1, 91-105aa; assay: indirect ELISA on biotinylated 15-mer peptide, supernatant 1/100
T1 peptide: {Biotin-Ahx}-ATGFVKKDQLGKNEE

46-60aa [2] = biological target: T2, 46-60aa; assay: indirect ELISA on biotinylated 15-mer peptide
T2 construct: also called alpha-synuclein peptide 46-60
T2 peptide: {Biotin-Ahx}-EGVVHGVATVAEKTK

127-140aa = biological target: T3, 127-140aa; assay: indirect ELISA on biotinylated 15-mer peptide
T3 peptide: {Biotin-Ahx}-MPSEEGYQDYEPEA

10-24aa = biological target: T4, 10-24aa; assay: indirect ELISA on biotinylated 15-mer peptide
T4 construct: also called alpha-synuclein peptide 10-24
T4 peptide: {Biotin-Ahx}-KAKEGVVAAAEKTKQ

82-96aa [3] = biological target: T5, 82-96aa; assay: indirect ELISA on biotinylated 15-mer peptide
T5 construct: also called alpha-synuclein peptide 82-96
T5 peptide: {Biotin-Ahx}-VEGAGSIAAATGFVK

1-15aa = biological target: T6, 1-15aa; assay: indirect ELISA on biotinylated 15-mer peptide
T6 construct: also called alpha-synuclein peptide 1-15
T6 peptide: {Biotin-Ahx}-MDVFMKGLSKAKEGV

1-14aa = biological target: T7, 1-14aa; assay: indirect ELISA on biotinylated 15-mer peptide
T7 construct: also called alpha-synuclein peptide 1-14
T7 peptide: MDVFMKGLSKAKEG-biotin

118-132aa [4] = biological target: T8, 118-132aa; assay: indirect ELISA on biotinylated 15-mer peptide
T8 peptide: {Biotin-Ahx}-VDPDNEAYEMPSEEG

46-60aa [5] = biological target: T2, 46-60aa; assay: indirect ELISA on biotinylated 15-mer peptide, supernatant 1/100
64-78aa [6] = biological target: T9, 64-78aa; assay: indirect ELISA on biotinylated 15-mer peptide
T9 construct: also called alpha-synuclein peptide 64-78
T9 peptide: {Biotin-Ahx}-TNVGGAVVTGVTAVA

82-96aa [7] = biological target: T5, 82-96aa; assay: indirect ELISA on biotinylated 15-mer peptide, supernatant 1/100
118-132aa [8] = biological target: T8, 118-132aa; assay: as above
91-105aa [9] = biological target: T1, 91-105aa; assay: indirect ELISA on biotinylated 15-mer peptide
64-78aa [10] = biological target: T9, 64-78aa; assay: indirect ELISA on biotinylated 15-mer peptide, supernatant 1/100
alpha-synuclein seeds = alpha-synuclein seeds (UniProt P37840 1-140); assay: cell-based or functional assay

B1: ACI-7079-2606A6-Ab2 (antibody, V domains shown)
VH: QVQLQQSGPELVKPGASVKISCKASGFAFSSSWMNWVKQRPGKGLEWVGRIFPGDGDTNYDRKFKDKATLTADKSSSTAYMQLSSLTSEDSAVYFCARWTGGYDWFAYWGQGTLVTVSA
VL: DIVLTQSPASLAVSLGQRATISCRASQSVSTSNYNYLHWYQQKPGQPPKLLITYASNLESGVPARFSGSGSGTDFTLNIHPVEEGDTATYYCQHSWEIPLTFGAGTKLELK
notes: mouse hybridoma mAb; VH/VL only; also called 2606A6D5
binding result (91-105aa [1]): binds
binding result (46-60aa [2]): no binding (tested: supernatant 1/100)
binding result (127-140aa): no binding (tested: supernatant 1/100)
binding result (10-24aa): no binding (tested: supernatant 1/100)
binding result (82-96aa [3]): no binding (tested: supernatant 1/100)
binding result (1-15aa): no binding (tested: supernatant 1/100)
binding result (1-14aa): no binding (tested: supernatant 1/100)
binding result (118-132aa [4]): no binding (tested: supernatant 1/100)

B2: ACI-7079-2501B11-Ab3 (antibody, V domains shown)
VH: QVQLQQSGPELVKPGASVKISCKASGYAFSSFWMNWMKQRPGKGLEWIGRIYPGDGDAHYNGEFKGRATLTADKSSSTAYMQLSSLTSEDSAVYFCARKGDFYGSNYDYWGQGTTLTVSS
VL: QAVVTQESALTTSPGETVTLTCRSSTGAVTTSNYANWVQEKPDHLFTGLIGGTNNRAPGVPARFSGSLIGDKAALTITGAQTEDEAIYFCALWYSNHLVFGGGTRLTVL
notes: mouse hybridoma mAb; VH/VL only; also called 2501B11C7
binding result (91-105aa [1]): binds
binding result (46-60aa [2]): no binding (tested: supernatant 1/100)
binding result (127-140aa): no binding (tested: supernatant 1/100)
binding result (10-24aa): no binding (tested: supernatant 1/100)
binding result (82-96aa [3]): no binding (tested: supernatant 1/100)
binding result (1-15aa): no binding (tested: supernatant 1/100)
binding result (1-14aa): no binding (tested: supernatant 1/100)
binding result (118-132aa [4]): no binding (tested: supernatant 1/100)

B3: ACI-7067-1107G5-Ab2 (antibody, V domains shown)
VH: QVQLQQPGTELVKPGASVKLSCKASGYTFTKYWMHWVKQRPGQGLEWIGNINPNNGDTNYNEKFKSKATLTVDKSSSTAYMQLSSLTSEDSAVYYCAIAMDYWGQGTSVTVSS
VL: DIQMTQSPSSLSAFLGERVSLTCRASQDIGNNLNWFQQEPDGTIKRLIYATSSLDSGVPKRFSGSRSGSEYSLTISSLESEDFVDYYCLQFGSSPLTFGAGTKLELK
notes: mouse hybridoma mAb; VH/VL only; also called 1107G5B6
binding result (46-60aa [5]): binds
binding result (127-140aa): no binding (tested: supernatant 1/100)
binding result (82-96aa [3]): no binding (tested: supernatant 1/100)
binding result (64-78aa [6]): no binding (tested: supernatant 1/100)
binding result (118-132aa [4]): no binding (tested: supernatant 1/100)

B4: ACI-7067-1111B12-Ab2 (antibody, V domains shown)
VH: QVQLLQPGTALVMPGASVKLSCKASGYTFTTYWMHWVKQRPGQGLEWIGNINPINGGSNYNEKFKSKASLTVDKSSSTAYMQLSSLTSEDSAVYYCVIAMDYWGQGTSVTVSS
VL: DIQMTQSPSSLSASLGERVSLTCRASQDIGISLNWFQQEPDGTIKRLIYATSSLDSGVPKRFSGNRSGSDYSLTISSLESEDFADYYCLQFASSPLTFGAGTKLELK
notes: mouse hybridoma mAb; VH/VL only; also called 1111B12H10
binding result (46-60aa [5]): binds
binding result (127-140aa): no binding (tested: supernatant 1/100)
binding result (82-96aa [3]): no binding (tested: supernatant 1/100)
binding result (64-78aa [6]): no binding (tested: supernatant 1/100)
binding result (118-132aa [4]): no binding (tested: supernatant 1/100)

B5: ACI-7067-1116F2-Ab1 (antibody, V domains shown)
VH: DVQLQESGPGFVKPSQSLSLTCSVTGYSITRGFYWNWIRQFPGNKLEWMGYISDDGNSNYNPSLKNRISITRDTFKNQVFLRLNSVTTEDTATYYCTRGDLLWGQGTTLTVSS
VL: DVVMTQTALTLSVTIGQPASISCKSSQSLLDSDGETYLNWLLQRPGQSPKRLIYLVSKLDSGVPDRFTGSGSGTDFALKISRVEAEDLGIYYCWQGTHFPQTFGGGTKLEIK
notes: mouse hybridoma mAb; VH/VL only; also called 1116F2A2
binding result (82-96aa [7]): binds
binding result (46-60aa [2]): no binding (tested: supernatant 1/100)
binding result (127-140aa): no binding (tested: supernatant 1/100)
binding result (64-78aa [6]): no binding (tested: supernatant 1/100)
binding result (118-132aa [4]): no binding (tested: supernatant 1/100)

B6: ACI-7079-2506E2-Ab2 (antibody, V domains shown)
VH: QVQLQQSGPELVRPGASVKISCKASGYAFSNSWMNWVKQRPGKGLEWIGRIFPGDGDTYYDGKFKGKVKLTTDKFSNTAYMQLRSLTSEDSAVYFCARWGGTNDEWFAHWGQGTLVTVSV
VL: DIVLTQSPASLTVSLGQRATISCRASQSVSTSRNSYMHWYQQKPRQPPKLLIKYASNLESGVPARFSGSGSGADFTLNIHPVEEEDTATYYCQHSWDIPLTFGTGTKLELS
notes: mouse hybridoma mAb; VH/VL only; also called 2506E2G4
binding result (118-132aa [8]): binds
binding result (46-60aa [2]): no binding (tested: supernatant 1/100)
binding result (127-140aa): no binding (tested: supernatant 1/100)
binding result (91-105aa [9]): no binding (tested: supernatant 1/100)
binding result (10-24aa): no binding (tested: supernatant 1/100)
binding result (82-96aa [3]): no binding (tested: supernatant 1/100)
binding result (1-15aa): no binding (tested: supernatant 1/100)
binding result (1-14aa): no binding (tested: supernatant 1/100)

B7: ACI-7067-1108H1-Ab1 (antibody, V domains shown)
VH: EVKLVESGGGLVQPGGSMKLSCTASGFTFSDAWMNWVRQSPEKGLEWVAEIRNKAHNHATNYAESVKGRFTISGDDSKSSVYLQMNNLRAEDTGIYYCTIYSFWGQGTLVTVSA
VL: SIVMTQTPKFLLVSAGDRVTITCKASQSVTNYVAWYHQKPGQSPKLLIYSASNRYSGVPDRFTGSGYGTDFTFTINTVQTEDLAVYFCQQDYRIPYTFGGGTKLEIK
notes: mouse hybridoma mAb; VH/VL only; also called 1108H1E1
binding result (64-78aa [10]): binds
binding result (46-60aa [2]): no binding (tested: supernatant 1/100)
binding result (127-140aa): no binding (tested: supernatant 1/100)
binding result (82-96aa [3]): no binding (tested: supernatant 1/100)
binding result (118-132aa [4]): no binding (tested: supernatant 1/100)
aggregation half-time (τ1/2) of seeded alpha-synuclein aggregation, ThT; no antibody 26.9 hours (alpha-synuclein seeds): 28 h

B8: ACI-7079-2503C6-Ab1 (antibody, V domains shown)
VH: DVQLQESGPGLVKPSQSLSLTCSVTGYSITSGYYWNWIRLFPGNKLEWLGYINYDGSNNFNPSLKNRISITRDTSKNQFFLKLNSVTSEDTATYFCLRGDWDWGQGTLVTVSA
VL: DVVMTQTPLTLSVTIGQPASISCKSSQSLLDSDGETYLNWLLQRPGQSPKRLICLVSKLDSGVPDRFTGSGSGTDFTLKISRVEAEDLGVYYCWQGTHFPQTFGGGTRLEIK
notes: mouse hybridoma mAb; VH/VL only; also called 2503C6H9
binding result (82-96aa [7]): binds
binding result (46-60aa [2]): no binding (tested: supernatant 1/100)
binding result (127-140aa): no binding (tested: supernatant 1/100)
binding result (91-105aa [9]): no binding (tested: supernatant 1/100)
binding result (10-24aa): no binding (tested: supernatant 1/100)
binding result (1-15aa): no binding (tested: supernatant 1/100)
binding result (1-14aa): no binding (tested: supernatant 1/100)
binding result (118-132aa [4]): no binding (tested: supernatant 1/100)
aggregation half-time (τ1/2) of seeded alpha-synuclein aggregation, ThT; no antibody 26.9 hours (alpha-synuclein seeds): 22.5 h

B9: ACI-7079-2511B3-Ab3 (antibody, V domains shown)
VH: DVQLQESGPGLVKPSQSLSLTCSVTGFSITSYYYWNWIRQFPGNKLEWMAYISYDGSNNYNPSLKNRISITRDTSKNQFFLKLNSVTTEDTATYYCTRGDWDWGQGTLVTVSA
VL: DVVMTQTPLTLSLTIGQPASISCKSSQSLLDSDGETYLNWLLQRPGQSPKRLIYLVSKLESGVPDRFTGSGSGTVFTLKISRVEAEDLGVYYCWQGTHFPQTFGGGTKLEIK
notes: mouse hybridoma mAb; VH/VL only; also called 2511B3B12
binding result (82-96aa [7]): binds
binding result (46-60aa [2]): no binding (tested: supernatant 1/100)
binding result (127-140aa): no binding (tested: supernatant 1/100)
binding result (91-105aa [9]): no binding (tested: supernatant 1/100)
binding result (10-24aa): no binding (tested: supernatant 1/100)
binding result (1-15aa): no binding (tested: supernatant 1/100)
binding result (1-14aa): no binding (tested: supernatant 1/100)
binding result (118-132aa [4]): no binding (tested: supernatant 1/100)

B10: ACI-7067-1101C8-Ab2 (antibody, V domains shown)
VH: EVQLVESGGGLVQPKGSLKLSCAASGFSFNIYAMNWVRQAPGKGLEWVARIRSKSNNYATYYADSVKDRFTISRADSESMLYLQMNNLKTEDTAMYYCVRVGLRFYAMDYWGQGTSVTVSS
VL: DVLMTQTPLSLPVSLGDQASISCRSSQSIVHSNGNTYLEWYLQKPGQSPKLLIYKVSNRFSGVPDRFSGSGSGTDFTLKISRVEAEDLGVYYCFQGSQGPLTFGAGTKLELK
notes: mouse hybridoma mAb; VH/VL only; also called 1101C8F7
binding result (118-132aa [8]): binds
binding result (46-60aa [2]): no binding (tested: supernatant 1/100)
binding result (127-140aa): no binding (tested: supernatant 1/100)
binding result (82-96aa [3]): no binding (tested: supernatant 1/100)
binding result (64-78aa [6]): no binding (tested: supernatant 1/100)
aggregation half-time (τ1/2) of seeded alpha-synuclein aggregation, ThT; no antibody 26.9 hours (alpha-synuclein seeds): 64 h

B11: ACI-7079-2501G2-Ab2 (antibody, V domains shown)
VH: EVQLVESGGGLVQPKGSLKLSCAASGFNFNTYAMNWVRQAPGKGLEWVARIRTKSNNFATYYAHSVKDRFTISRDDSESMLYLQMNNLKTEDTAMYYCVRQGLAYYAMDYWGQGTSVTVSS
VL: DVLMTQTPLSLPVSLGDQVSISCRSSQTIVHSNGNTYLEWYLQKPGQSPKLLIYKVSNRFSGVPDRFSGSGSGTDFTLKISRVEAEDLGVYYCFQGSQGPLTFGAGTKLELK
notes: mouse hybridoma mAb; VH/VL only; also called 2501G2E5
binding result (118-132aa [8]): binds
binding result (46-60aa [2]): no binding (tested: supernatant 1/100)
binding result (127-140aa): no binding (tested: supernatant 1/100)
binding result (91-105aa [9]): no binding (tested: supernatant 1/100)
binding result (10-24aa): no binding (tested: supernatant 1/100)
binding result (82-96aa [3]): no binding (tested: supernatant 1/100)
binding result (1-15aa): no binding (tested: supernatant 1/100)
binding result (1-14aa): no binding (tested: supernatant 1/100)
